In patent publication US20260265359A1 (Hoffmann-La Roche, published 2026):
Where two headings read alike, the source gives them in different places.

T1: human Ang-1-Fc (human, UniProt Q15389 20-498, limits assumed)
T1 construct: not shown: Fc part
T1 sequence (looked up): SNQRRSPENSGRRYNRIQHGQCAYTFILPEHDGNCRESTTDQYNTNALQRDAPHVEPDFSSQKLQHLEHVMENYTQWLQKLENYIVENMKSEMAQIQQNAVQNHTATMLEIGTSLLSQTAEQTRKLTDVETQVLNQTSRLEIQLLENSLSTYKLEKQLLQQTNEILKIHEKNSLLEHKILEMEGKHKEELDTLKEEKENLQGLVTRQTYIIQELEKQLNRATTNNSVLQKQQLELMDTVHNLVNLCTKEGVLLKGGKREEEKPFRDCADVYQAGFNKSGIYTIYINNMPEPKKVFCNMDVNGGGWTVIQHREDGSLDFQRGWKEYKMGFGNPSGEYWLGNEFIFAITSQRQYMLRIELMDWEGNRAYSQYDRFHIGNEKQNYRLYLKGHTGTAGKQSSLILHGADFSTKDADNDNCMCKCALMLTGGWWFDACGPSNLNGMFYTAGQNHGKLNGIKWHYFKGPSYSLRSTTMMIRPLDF

T2: recombinant human IL-6R (human, UniProt P08887 20-365, limits assumed)
T2 construct: Recombinant protein used in ELISA and as SPR analyte; also called hIL-6R
T2 sequence (looked up): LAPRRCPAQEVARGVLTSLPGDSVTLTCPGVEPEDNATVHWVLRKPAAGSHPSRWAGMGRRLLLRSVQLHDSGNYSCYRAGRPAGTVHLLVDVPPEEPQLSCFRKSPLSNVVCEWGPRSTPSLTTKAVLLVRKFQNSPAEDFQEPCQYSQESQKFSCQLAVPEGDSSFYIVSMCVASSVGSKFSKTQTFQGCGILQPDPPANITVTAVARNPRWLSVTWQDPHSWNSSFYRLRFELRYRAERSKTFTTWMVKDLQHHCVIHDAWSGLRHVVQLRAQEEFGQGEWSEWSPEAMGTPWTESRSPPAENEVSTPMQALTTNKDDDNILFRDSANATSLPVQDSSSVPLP

T3: human IL-6R overexpressed on engineered CHO-S cells (human, UniProt P08887 20-468)
T3 construct: whole, on cells; also called IL-6R-expressing CHO-S cells
T3 sequence (looked up): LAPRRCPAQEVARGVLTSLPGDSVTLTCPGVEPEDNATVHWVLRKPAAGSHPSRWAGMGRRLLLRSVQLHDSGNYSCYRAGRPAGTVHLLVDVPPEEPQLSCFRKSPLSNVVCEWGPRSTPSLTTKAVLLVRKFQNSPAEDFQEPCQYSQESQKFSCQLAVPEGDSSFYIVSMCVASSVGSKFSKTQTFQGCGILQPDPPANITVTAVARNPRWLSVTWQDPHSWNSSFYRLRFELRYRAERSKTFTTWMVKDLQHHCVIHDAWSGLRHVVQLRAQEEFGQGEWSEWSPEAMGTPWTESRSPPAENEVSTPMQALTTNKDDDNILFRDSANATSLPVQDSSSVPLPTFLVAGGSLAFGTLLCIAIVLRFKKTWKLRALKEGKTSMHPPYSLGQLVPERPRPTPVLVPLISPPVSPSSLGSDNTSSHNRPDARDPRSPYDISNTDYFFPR


Key:
human Ang-1-Fc [1] = biological target: T1, human Ang-1-Fc; experiment: FACS competition: soluble human Tie-2 ECD (positive control) pre-incubated with 2 µg/ml human Ang-1-Fc, then HEK-293 cells overexpressing human Tie-2; blocked: Ang-1-Fc binding to cell-bound Tie-2
human Ang-1-Fc [2] = biological target: T1, human Ang-1-Fc; experiment: FACS competition: soluble recombinant hTie-2 (positive control) pre-incubated with 2 µg/ml human Ang-1-Fc, then HEK-293 cells overexpressing human Tie-2; blocked: Ang-1-Fc binding to cell-bound Tie-2
recombinant human IL-6R [3] = biological target: T2, recombinant human IL-6R; experiment: ELISA on plate-coated recombinant human IL-6R; anti-human IgG1-Fc-HRP, OD450
Protocol: (§1) After non-specific blocking using 1% BSA at 25° C. for 1 hour, a series of dilutions of test antibodies (“Abs”) were added into the coated wells and incubated at 25° C. for 1 hour. The bound Abs were detected using a secondary Ab (goat anti-human IgG1-Fc) conjugated with HRP followed by OD₄₅₀ reading.
(§2) The same ELISA procedure was performed with recombinant human IL-6R. […] Vobarilizumab is a single domain antibody against IL-6R. B781402 and B781405 are bispecific fusion antibodies that inhibit VEGF-A, B, PIGF and IL-6R.

recombinant human IL-6R [4] = biological target: T2, recombinant human IL-6R; experiment: as above; remark: listed apart in the source
Protocol: as §1, §2

recombinant human IL-6R [5] = biological target: T2, recombinant human IL-6R; experiment: SPR Biacore, 25 C; test antibody captured by anti-human IgG (Fc) on CM5 chip, target protein as analyte; 1:1 model
Protocol: (§3) SPR Biacore assay was performed at 25° C. with HBS-EP+ as a running buffer. The assay was performed by immobilization of the anti-human IgG (Fc) antibody onto the CM5 sensor chip surface and determined the level of ligand immobilization. […] Test antibodies were injected over the surface of Series S Sensor Chip CM5 as Capture. The analytes (target proteins) were diluted with running buffer into different concentrations and injected over the sensor surface as the association phase for affinity and kinetics measurements. The 1:1 binding model was used to measure the binding affinity and/or kinetics.

recombinant human IL-6R [6] = biological target: T2, recombinant human IL-6R; experiment: as above; remark: listed apart in the source
Protocol: as §3

[7] = biological target: T3, human IL-6R overexpressed on engineered …; experiment: FACS competition: antibody with biotinylated human IL-6 and CHO-S cells overexpressing human IL-6R; blocked: IL-6 binding to IL-6R
Description: (§4) Vobarilizumab is a single domain antibody (also termed nanobody) against human IL-6R.

[8] = biological target: T3, human IL-6R overexpressed on engineered …; experiment: as above; remark: listed apart in the source
Description: as §4

IC50 (human Ang-1-Fc [1]) [nM] | IC50 (human Ang-1-Fc [2]) [nM] | EC50 (recombinant human IL-6R [3]) [nM] | EC50 (recombinant human IL-6R [4]) [nM] | Kd (recombinant human IL-6R [5]) [nM] | koff (recombinant human IL-6R [5]) [s⁻¹] | kon (recombinant human IL-6R [5]) [M⁻¹ s⁻¹] | Kd (recombinant human IL-6R [6]) [nM] | koff (recombinant human IL-6R [6]) [s⁻¹] | kon (recombinant human IL-6R [6]) [M⁻¹ s⁻¹] | IC50 [7] [nM] | IC50 [8] [nM] | Binder
42.9 | 53 | – | – | – | – | – | – | – | – | – | – | hTie2 (receptor, also called human Tie-2 ECD; recombinant hTie-2) AMDLILINSLPLVSDAETSLTCIASGWRPHEPITIGRDFEALMNQHQDPLEVTQDVTREWAKKVVWKREKASKINGAYFCEGRVRGEAIRIRTMKMRQQASFLPATLTMTVDKGDNVNISFKKVLIKEEDAVIYKNGSFIHSVPRHEVPDILEVHLPHAQPQDAGVYSARYIGGNLFTSAFTRLIVRRCEAQKWGPECNHLCTACMNNGVCHEDTGECICPPGFMGRTCEKACELHTFGRTCKERCSGQEGCKSYVFCLPDPYGCSCATGWKGLQCNEACHPGFYGPDCKLRCSCNNGEMCDRFQGCLCSPGWQGLQCEREGIQRMTPKIVDLPDHIEVNSGKFNPICKASGWPLPTNEEMTLVKPDGTVLHPKDFNHTDHFSVAIFTIHRILPPDSGVWVCSVNTVAGMVEKPFNISVKVLPKPLNAPNVIDTGHNFAVINISSEPYFGDGPIKSKKLLYKPVNHYEAWQHIQVTNEIVTLNYLEPRTEYELCVQLVRRGEGGEGHPGPVRRFTTASIGLPPPRGLNLLPKSQTTLNLTWQPIFPSSEDDFYVEVERRSVQKSDQQNIKVPGNLTSVLLNNLHPREQYVVRARVNTKAQGEWSEDLTAWTLSDILPPQPENIKISNITHSSAVISWTILDGYSISSITIRYKVQGKNEDQHVDVKIKNATITQYQLKGLEPETAYQVDIFAENNIGSSNPAFSHELVTLPESQAPADLGGGKMLL
– | – | 0.05 | 0.028 | 1.1 | 0.00046 | 420000 | 1.4 | 0.000521 | 373000 | 0.756 | 1.82 | Tocilizumab (antibody, V domains shown, mAb against human IL-6R used as comparator) VH: QVQLQESGPGLVRPSQTLSLTCTVSGYSITSDHAWSWVRQPPGRGLEWIGYISYSGITTYNPSLKSRVTMLRDTSKNQFSLRLSSVTAADTAVYYCARSLARTTAMDYWGQGSLVTVSS VL: DIQMTQSPSSLSASVGDRVTITCRASQDISSYLNWYQQKPGKAPKLLIYYTSRLHSGVPSRFSGSGSGTDFTFTISSLQPEDIATYYCQQGNTLPYTFGQGTKVEIKR
– | – | 1.39 | 1.36 | – | – | – | – | – | – | – | – | Vobarilizumab (VHH) VHH 1: EVQLVESGGGLVQPGGSLRLSCAASGSVFKINVMAWYRQAPGKGRELVAGIISGGSTSYADSVKGRFTISRDNAKNTLYLQMNSLRPEDTAVYYCAFITTESDYDLGRRYWGQGTLVTVSS VHH 2: QIILTQSPAIMSASLGEEITLTCSATSSVTYVHWYQQKSGTSPKLLIYGTSNLASGVPSRFSGSGSGTFYSLTVSSVEAEDAADYYCHQWNSYPHTFGGGTKLEIK
